{"source": "patent US20050048066A1", "about": "(published 2005)", "molecular_target": "HLA-DR1 (human)", "assay": "competitive binding assay; DR1 format not described", "data": [{"binder": "HFVMQRLPLYFIVN (peptide, UniProt P02708 224-237, looked up)", "note": "[AChRα peptide 204-217]", "values": [{"measurement": "IC50", "result": 1.75, "unit": "µM"}]}, {"binder": "KYVAMVMDHILLGV (peptide, UniProt P02708 420-433, looked up)", "note": "[AChRα peptide 400-413]", "values": [{"measurement": "IC50", "result": 11.7, "unit": "µM"}]}, {"binder": "QLIQLINVDEVNQI (peptide, UniProt P02708 56-69, looked up, range 36-49; also called AChRα 36-49)", "note": "[AChRα peptide 36-49]", "values": [{"measurement": "IC50", "result": 11.2, "unit": "µM"}]}]}
